{"source": "the nanobody polyreactivity screen of Harvey et al. (2022)"}
{"assay": "yeast display, Sf9 membrane polyspecificity reagent, FACS + sequencing; frameworks hold sequencing errors", "outline": "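Nanobodies came from a synthetic yeast display library in Saccharomyces cerevisiae BJ5465, induced with galactose for 36–48 hours and stained for 1 hour at 4 °C with 10% biotinylated, detergent-solubilized Sf9 membrane reagent. Cells were enriched on streptavidin microbeads and then FACS-sorted, with low and high (top ~1%) gates set on anti-HA fluorescence for expression and streptavidin fluorescence for reagent binding. Each polyreactivity label reflects the gate a clone came from. Genes were amplified by colony PCR, sequenced by MiSeq 2 × 250 and filtered by CDR length.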"}
{"sequence": "QVQLVESGGGLVQAGGSLRLSCASSGLIYHRNAMGWYRQAPGKERELVAAITKTGGGTYYADSVKGRFTISRDNAKNTVYLQMNSLKPEDTAVYYCAADTQRTFYYWGQGTQVTVSS", "polyreactivity (PSR sort gate)": "low polyreactivity"}
{"sequence": "QVQLVESGGGLVQAGGSLRLSCASSGNIFVAYAMGWYRQAPGKERELVAAITSGGRTYADSVKGRFTISRDNAKNTVYLQMNSLKPEDTAVYYCNADPYYVYLGYYDRYYSGYGYWGQGTQVTVSS", "polyreactivity (PSR sort gate)": "low polyreactivity"}
{"sequence": "QVQLVESGGGLVQAGGSLRLSCASSGNTFKTNAMGWYRQAPGKERELVAAISSSGSTYYADSVKGRFTISRDNAKNTVYLQMNSLKPEDTAVYYCAVTYRRFYYWGQGTQVTVSS", "polyreactivity (PSR sort gate)": "high polyreactivity"}
{"sequence": "QVQLVESGGGLVQAGGSLRLSCASSGRIFFMYAMGWYIQAPGKERELVAAINKSGGSTYADSVKGRFTISRDNANNTVYLQMNSLKPEDTAVYYCATENTDSGESVYIVKYGSDYWGQGTQVTVSS", "polyreactivity (PSR sort gate)": "low polyreactivity"}
{"sequence": "QVQLVESGGGLVQAGGSLRLSCASSGRIFGSYAMGWYRQAPGKERELVAGIRSVGSTNYADSVKGRFTISRDNAKNTVFLQINSLKPEDTAVYYCAARLWHLSYAGQGGDYWGQVTQVTVSS", "polyreactivity (PSR sort gate)": "low polyreactivity"}
{"sequence": "QVQLVESGGGLVQAGGSLRLSCASSGRIFYSYAMGWYRQAPGKERELVAAITVSGGSTFYADSVKGRFTISRDNAKNTVYLQMNSLKPEDTAVYYCAAQSTTIEDGWYVEYNYWGQGTQVTVSS", "polyreactivity (PSR sort gate)": "high polyreactivity"}
{"sequence": "QVQLVESGGGLVQAGGSLRLSCASSGRIIINYDMGWYRQAPGKEIELVAAITWSTGSTYADSVKGRFTISRDNAKNTVYLQMNSLKPEDTAVYYCAAPWGQTDDRHQGGDYWGQGTQVTVSS", "polyreactivity (PSR sort gate)": "low polyreactivity"}
{"sequence": "QVQLVESGGGLVQAGGSLRLSCASSGRTFLGYAMGWYRQAPGKERELVAAISYSGSSTYYADSVKGRFTISRDNAKNTVYLQMNSLKPEDTAVYYCAAQFYFLFDYWGQGTQVTVSS", "polyreactivity (PSR sort gate)": "low polyreactivity"}
{"sequence": "QVQLVESGGGLVQAGGSLRLSCASSGRTFTPYAMGWSTQAPGKERELVAAISRRAGTTYYADSVKGRFTISRDKAKNYGFLQMNRLKPEETEVYYCAALTESSSYGYWGQGTQVNVSS", "polyreactivity (PSR sort gate)": "low polyreactivity"}
{"sequence": "QVQLVESGGGLVQAGGSLRLSCASSGRTFTYYTMGWYRQAPGKERELVAAISSSGGSTYYADSVKGRFTISRDNAKNTVYLQMNSLKPEDTAVYYCAAVRGRLLPPYGYWGQGTQVTVSS", "polyreactivity (PSR sort gate)": "high polyreactivity"}
{"sequence": "QVQLVESGGGLVQAGGSLRLSCASSGRTFVSNAKGWYRQAPGKERELVAVITGIGGNTYYADSVKGRFTISRDNAKNSDYLQMNSLKPEDTAVYYCAADISLVSYYYWGQGTQVTVSS", "polyreactivity (PSR sort gate)": "low polyreactivity"}
{"sequence": "QVQLVESGGGLVQAGGSLRLSCASSGRTSLGYVMGWYRQAPGKERELVAAITKSGGSTYYADSVKGRFTISRDNAKNTVYLQMNSQKPEDTAVYYCAARNPWSARYEYWGQGTQVTVSS", "polyreactivity (PSR sort gate)": "high polyreactivity"}
{"sequence": "QVQLVESGGGLVQAGGSLRLSCASSGSIFALNAMGWYRQAPGKERELVAAISSSGGNTYYADSVKGRFTISRDNAKNTVYLQMNSLKPEDTAVYYCNRVAYRNDFDYWGQGTQVTVSS", "polyreactivity (PSR sort gate)": "low polyreactivity"}
{"sequence": "QVQLVESGGGLVQAGGSLRLSCASSGSIFPAYAMGWYRQAPGKERELVAAISSRGGSTYYADSVKGRFTISRDNAKNTVYLQMNSLKPEDTAVYYCAASRWLYYYLFEYWGQGTQVTVSS", "polyreactivity (PSR sort gate)": "high polyreactivity"}
{"sequence": "QVQLVESGGGLVQAGGSLRLSCASSGSIFSKYAMGWYRQAPGKERELVAAITLNGGSTYYADSVKGRFTISRDNAKNTVYLQMNSLKPEDTAVYYCAKSDRPWWGYYYSWGQGSQVTVSS", "polyreactivity (PSR sort gate)": "low polyreactivity"}
{"sequence": "QVQLVESGGGLVQAGGSLRLSCASSGSIFVANAMGWYRQAPGKERELVAAISVRGGRTYYADSVKGRFTISRDNAKNTVYLQMNSLKPEDTAVYYCARVLRSDVADYDYWGQGTQVSVSS", "polyreactivity (PSR sort gate)": "high polyreactivity"}
{"sequence": "QVQLVESGGGLVQAGGSLRLSCASSGSILWLNAMGWYRQAPGKERDLVAAITSRGGSTYYADSVKGRYTITRDNANNTVYLQMNSLKPEDTAVYYCATRSSRGSGSRFDYWGQGTQVTVSS", "polyreactivity (PSR sort gate)": "high polyreactivity"}
{"sequence": "QVQLVESGGGLVQAGGSLRLSCASSGSTFAIYAMGWYRQAPGKESELVAAITRSGGNAYYADSVKGRFTISRDNAKNTVYLQMNSLKPEDTAVYYCNAETYYWSAYAQYDYWGQGTQVTVSS", "polyreactivity (PSR sort gate)": "high polyreactivity"}
{"sequence": "QVQLVESGGGLVQAGGSLRLSCASSGSTFDYYMGWYRHAPGKERELVAAITYSGGSTYYADSVKGRFTISRDNAKNTVYLQMKSLKPEDTAVYYCAKDRSTFDDFYSNYYWGQGTQVTVSS", "polyreactivity (PSR sort gate)": "low polyreactivity"}
{"sequence": "QVQLVESGGGLVQAGGSLRLSCASSGSTFLAYAMGWDRQAPGKERELVAAISSRGSRTYYADSLKGRCTISRDTAKNTVYLQMNSLKPEDTAVYYCAARYPSGYYYWGQGTQVTVSS", "polyreactivity (PSR sort gate)": "high polyreactivity"}
{"sequence": "QVQLVESGGGLVQAGGSLRLSCASSGSTFSANTKGWYRQAPGKERELVAAINSSGGSSTYYADSVKGRFTISRDNAKNTVYLQMKSLKPEDTAVYYCAAENSVPRGVLGGEFDYWGQGTQVTVSS", "polyreactivity (PSR sort gate)": "low polyreactivity"}
{"sequence": "QVQLVESGGGLVQAGGSLRLSCASSGSTFYGNAMGWYRQAPGKERELVATISSGGSTDYADSVKGRFTISRDNAKNTVYLQMNSLKPEDTAVYYCATDNYLGYYYKDGVLDDYWGQGTQVTVSS", "polyreactivity (PSR sort gate)": "low polyreactivity"}
{"sequence": "QVQLVESGGGLVQAGGSLRLSCASSGSTFYGNAMGWYRQEPGKERELVASISSGGTNYADSVKGRFTISRDNAKNTVYLQMNSLKPEDTAVYYLNADYIDTFRGFDYWGQGTQVTVSS", "polyreactivity (PSR sort gate)": "low polyreactivity"}
{"sequence": "QVQLVESGGGLVQAGGSLRLSCASSGSTIRSYAMGWYRQAPGKERELVAVISSGDSTYYADSVKGRFTISRDNAKNTVYLQMNSLKPDDTAVYYCAADSYVLGRWYGYWGQGTQVTVSS", "polyreactivity (PSR sort gate)": "low polyreactivity"}
{"sequence": "QVQLVESGGGLVQAGGSLRLSCASSGSTYYVYGMVWYRQAPGKERELVAAISWSGGDTYYADSVKGRFTISRDNAKKTVYFQMNPLKPEDTGVYYCAAVYNYPVVCEYDYWGQGTQVTVSS", "polyreactivity (PSR sort gate)": "high polyreactivity"}
{"sequence": "QVQLVESGGGLVQAGGSLRLSCASSRNIFYLYAMGWYRQAPGKEREFSTSYADSEKGRFTISRDNAKNTVYLQMNSLKPEDTAVYYCAAYNSRGPYYYLFDYWGQGSQVTVSS", "polyreactivity (PSR sort gate)": "low polyreactivity"}
{"sequence": "QVQLVESGGGLVQAGGSLRLSCASYGSIFSSYFMGWYRQAPGKERELVAAISSGGRTYYADSVKGRFTISRDNAKNTVYIQMKSLKPEDTAVFYCNRVRYRQSAFDYWGQGTQVTVSS", "polyreactivity (PSR sort gate)": "high polyreactivity"}
{"sequence": "QVQLVESGGGLVQAGGSLRLSCATSGGIFDSYAMVWYRQAPGKERELVASISWSGGSTYYADSVKGRFTISRDNEKNTVYLQMKSLKPEVTAVYYCAADRPYAGRFWKGYHSALYDYWGQGTQVTVSS", "polyreactivity (PSR sort gate)": "low polyreactivity"}
{"sequence": "QVQLVESGGGLVQAGGSLRLSCAYSGRTFYYNTMGWYRQAPGKEREFVATISRIGGSTYYADSVKGRFTISRDNAKNTVYFQMNSLKPEDTAVYYCAKGRSLNGLPPVVYWQLFYYWGQGTLVTVSS", "polyreactivity (PSR sort gate)": "high polyreactivity"}
{"sequence": "QVQLVESGGGLVQAGGSLRLSCDASASILRENAMGWYRQAPGKERELVAVITRGGNTYYADSVKGRFTISRDNAKNTVYLQMNSLKPEDTAVYYCAAKRRERYGQTYGYWGQGTQVTVSS", "polyreactivity (PSR sort gate)": "high polyreactivity"}
{"sequence": "QVQLVESGGGLVQAGGSLRLSCDASGFIFRRYTMGWNRQAPGKETELVPAITSSGGTNYADSVKGRFTISRDNAKNNVFVLRNSLKPEDTAVYYCAARRLTQQGYGGGYWGQGTQVTVAS", "polyreactivity (PSR sort gate)": "high polyreactivity"}
{"sequence": "QVQLVESGGGLVQAGGSLRLSCDASGFIFVRYAMGWYRQAPGKEREFVAAISRSGGSTYYADSVKGRFTISRDNAKNTVYLQMNSLKPEDTAVYYCARQYASPRREFEYWGQGTQVTVSS", "polyreactivity (PSR sort gate)": "high polyreactivity"}
{"sequence": "QVQLVESGGGLVQAGGSLRLSCDASGFILYYNAMGWYRQAPGKEREMVAAITSGGGGTYYADSVKGRFTNSRDNAKNTVYFQMNSLNPEDTAVYYCNTRFGYRGGVDFDYWGQGTQVTVSS", "polyreactivity (PSR sort gate)": "high polyreactivity"}
{"sequence": "QVQLVESGGGLVQAGGSLRLSCDASGFTFGRNAMGWYRQAPGKERELVAAISSSGGTTYYADSVKGRFTISRDNAKNTVYLQMNSLKPEDTAVYYCAAGYYYRYDYWGQGTQVTVSS", "polyreactivity (PSR sort gate)": "high polyreactivity"}
{"sequence": "QVQLVESGGGLVQAGGSLRLSCDASGFTFPSYAMGWYRQAPGKERELVAAISYRGGRTYYADSVKGRFTISRDNAKNTVYLQMNSLKPEDTAVYYCAAAGYAWWGEYEYWGQGTQVTVSS", "polyreactivity (PSR sort gate)": "high polyreactivity"}
{"sequence": "QVQLVESGGGLVQAGGSLRLSCDASGFTFVYYAMGCYRQAPGKERELVAAISGRGGSTYYADSVKGRFTISRDNAKNTVYLQMNSLKPEDTAVYYCATTYSWYYVPYKTHIYYYWGQGTQVTVSS", "polyreactivity (PSR sort gate)": "low polyreactivity"}
{"sequence": "QVQLVESGGGLVQAGGSLRLSCDASGFTFYKNAMGWYRQAPGKERELVAAISSGGSTSYADSVKGRFTISRDNAKNTVYLQMNSLKPEDTAVYFCAADRFAFYGRYRGPYYYWGQGTQVTVSS", "polyreactivity (PSR sort gate)": "high polyreactivity"}
{"sequence": "QVQLVESGGGLVQAGGSLRLSCDASGFTFYYYAMGWYRPAPGKERELVAAISSSGSSTYYADSVKGRFTISRDNAKNTVYLQMNSLKPEDTAVYYCNARRYEYLWGDYWGQGTQVTVSS", "polyreactivity (PSR sort gate)": "high polyreactivity"}
{"sequence": "QVQLVESGGGLVQAGGSLRLSCDASGGTFYVNHMAWYRPAPWKERELVATITYSGTSTYYADSVKGRFTISRDNAKNTVYLQMNSLKPEDTAVYYCATDVLLYFEPVNLDYWGQGTQVTVSS", "polyreactivity (PSR sort gate)": "low polyreactivity"}
{"sequence": "QVQLVESGGGLVQAGGSLRLSCDASGIIFAWYAMGWSRQAPGKERELVAAISSDGITKDADSVKGRFTISRDNAKNTVYLQMNSLKPEDTAVYYCAAGLGWGLYWIDSYEYWGQGTQVTVSS", "polyreactivity (PSR sort gate)": "low polyreactivity"}
{"sequence": "QVQLVESGGGLVQAGGSLRLSCDASGIIFGYYAMGWYRQAPGKERELVAGITWRGDITYADSVKGRFTISRDNAKNTVYLQMNSLKPEDTAVYYCAAESSFYRGYGYWGQGTQVTVSS", "polyreactivity (PSR sort gate)": "high polyreactivity"}
{"sequence": "QVQLVESGGGLVQAGGSLRLSCDASGIIFTFYTMGWYRQAPGKERELVAAITWSGGSTNYADSVKGRFTISRDNAKNTVYLQMNSLKPEDTAVYYCAAQGYPQSPPWEDYWGQGTQVTVSS", "polyreactivity (PSR sort gate)": "low polyreactivity"}
{"sequence": "QVQLVESGGGLVQAGGSLRLSCDASGITFYRYAMGWYRQAPGKERELVAAITSGDTTYYADSVKGRFTISRDNAKNTVYLQMNSLKPEDTADYYCAAVAGYRVVRTRELGYWGQGTQVTVSS", "polyreactivity (PSR sort gate)": "high polyreactivity"}
